Among the data in patent EP4703383A1 are absorbance values, retold here.

B1: P-PR-C07H (antibody, V domains shown)
VH: EVQLQQSGAELVRPGTSVQISCKASGYTFTNNWLAWIKQRPGHGLEWIGDIYPGGVYTNYNEKFKGKATLTADTSSSTAYMQLSSLTSEDSAVYFCYYGDFWSAYWGQGTLVTVSA
VL: DIVMTQAAPSVPVTPGESVSISCRSSKSLLHSNGNTYLYWFLQRPGQSPQLLIYRMSNLASGVPDRFSGSGSGTAFTLRISRVEAEDVGVYYCMQHLEYPLTFGAGTKLELK
B2: P-PR-C04W (antibody, V domains shown)
VH: QVQLQQPGSELVRPGASVKLSCKASGFTFTTYWVHWVKQRPGQGLEWIGNISPGSGSTNYDEKFKSKASLTVDTFSNTAYMQLSSLTSEDSAVYYCIRHSGNYFNAMDYWGQGTTVTVSS
VL: B1 VL
B3: P-PR-B09W (antibody, V domains shown)
VH: B2 VH with Y32F, S55G, G56T, T115S
VL: B1 VL
B4: P-PR-D01H (antibody, V domains shown)
VH: B2 VH with S55G, S84G, V116L
VL: B1 VL
B5: P-PR-C02H (antibody, V domains shown)
VH: B2 VH with K19R, T115S
VL: B1 VL with A8T, T14A, S32T, N35Y
B6: P-PR-C08H (antibody, V domains shown)
VH: B2 VH
VL: B1 VL
B7: P-PR-D06H (antibody, V domains shown)
VH: B2 VH with Y32F, G56T, D61N, S66N, V116L
VL: B1 VL with S20T, N35K, R55W, L101F, A105V
B8: P-PR-G02W (antibody, V domains shown)
VH: B2 VH with V116L
VL: B1 VL
B9: HP-PR01C02 (antibody, V domains shown)
VH: DVHLVESGPGLVKPSQSLSLTCTVTGYSITSDYAWNWIRQFPGNKLEWMGYISYSGSTGYSPSLKSRVSITRDTSKNQFFLQLNSVTTEDTATYFCARNNWAFDFWGQGTTLTVSS
VL: DIVLTQSPAIMSASPGEKVTMTCSASSSVNYMHWYQQKSGTSPKRWIYDTSKLASGVPARFSGSGSGTSYSLTISSMEAEDAATYYCQQWSSNPLTFGAGTKLELK
B10: HP-PR01B01 (antibody, V domains shown)
VH: EVHLVESGPDLVKPSQSLSLTCTVTGYSITSGYNWHWIRQFPGNKLEWMGYIHYSGSTKYDPSLKSRISFTRDTSRNQFFLQLNSVTTEDRATYYCARSEAGGYSWFAYWGQGTLVTVSA
VL: B9 VL with L4M, T22A
B11: H-PR-B03 (antibody, V domains shown)
VH: QVQLKESGPGLVAPSQSLSITCTVSGFSLTGFGVNWFRQPPGRGLEWLGMIWGDGSTDYNSALKSRLSISKDNSKSQVFLKMNSLQTDDTARYYCARVLYYYGGNSFAYWGQGTLVTVSA
VL: DVLMTQTPLSLPVSLGDQASISCRSSQSIVHSNGNTYLEWYLQKPGQSPKLLIYKVSSRFSGVPDRFSGSGSGTDFTLKISRVEAEDLGVYYCFQGSHVPYTFGGGTKLEIK
B12: HP-PR02E11 (antibody, V domains shown)
VH: QVQLQQSGPGLVAPSQSLSITCTVSGFSLTSYGVNWVRQPPGKGLEWLGIIGAGGSTNYNSALMSRLSISKDNSKSQVFLKMNSLQTDDTAMYYCARSLYYYGSSSFAYWGQGTLVTVSA
VL: B11 VL with V2I, L3V, S58N, Y101W, I111L
B13: H-PR-B06 (antibody, V domains shown)
VH: DVKLVESGGGLVKPGGSLKLACAASGFTFSSYTMSWVRQTPEKRLEWVATISSGGSYTYYPDSVKGRFTISRDNAKNTLYLQLSSLKSEDTAMYYCTRDRYYSTTPDWYFDVWGAGTTVTVSS
VL: DIVLTQSPATLSVTPGDSVSLSCRATQIIFNNLHWYQQKSHESPRLLITYTSQSISGIPSRFSGSGSGTDFTLTINSVETEDFGMYFCQQSNTWPRTFGGGTKLEIK
B14: HP-PR02H02 (antibody, V domains shown)
VH: B13 VH with D1E, K3M, V119L
VL: B13 VL with L4I

Numbering of substitutions follows the chain as printed. Names may count otherwise.

Chain of murine PRLR extracellular domain (mouse) (Q08501 20-229): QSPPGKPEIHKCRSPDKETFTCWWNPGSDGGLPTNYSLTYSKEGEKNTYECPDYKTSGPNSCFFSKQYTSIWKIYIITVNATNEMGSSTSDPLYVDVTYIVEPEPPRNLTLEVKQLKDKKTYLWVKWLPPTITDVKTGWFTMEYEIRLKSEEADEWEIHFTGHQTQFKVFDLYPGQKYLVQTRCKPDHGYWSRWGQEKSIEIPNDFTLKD
Chain of extracellular segment of human PRLR protein with avi-(his)6 tag (hPRLR-ECD-avi-his) (human) (P16471 other isoform, or with tags, fused parts or gaps): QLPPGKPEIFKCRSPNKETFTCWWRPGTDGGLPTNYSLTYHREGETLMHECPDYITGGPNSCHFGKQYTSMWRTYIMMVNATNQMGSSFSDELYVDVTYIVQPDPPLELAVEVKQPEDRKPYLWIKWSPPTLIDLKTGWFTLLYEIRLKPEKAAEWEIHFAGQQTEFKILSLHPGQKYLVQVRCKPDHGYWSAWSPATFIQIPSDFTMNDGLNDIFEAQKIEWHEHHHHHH

One assay addresses murine PRLR extracellular domain (mouse) (UniProt Q08501). The assay is described as follows: ELISA, coated antigen 1 ug/mL, antibody 10 ug/mL.
In turn, B1 registered an absorbance at 450nm of 0.102.
As to B2, the absorbance at 450nm worked out at 0.09.
With B3, the absorbance at 450nm worked out at 0.141.
On the same count and under the same terms, the result for B4 reads 0.118.
Same read-out and setting: the figure for B5 is 0.115; for B6 it is 0.094; for B7 it is 2.52.
Still for that read-out and setting: the figure for B8 is 0.09.
In the case of B9, the absorbance at 450nm was determined as 0.273.
Still for that read-out and setting: the figure for B10 is 0.161.
On the same count and under the same terms, the result for B11 reads 0.382.
For B12, the absorbance at 450nm amounted to 3.44.
On the same count and under the same terms, the figure for B13 is 0.334; for B14 it is 0.223.

The target of a further assay is extracellular segment of the PRLR protein of cynomolgus monkey with avi-(his)6 tag (cynoPRLR-ECD-avi-his) (cynomolgus monkey). Put plainly: ELISA, coated antigen 1 ug/mL, antibody 10 ug/mL. In general terms: An ELISA detects its analyte on a solid surface through an enzyme-linked reagent.
Chain of extracellular segment of the PRLR protein of cynomolgus monkey with avi-(his)6 tag (cynoPRLR-ECD-avi-his) (cynomolgus monkey) (chain, as listed by the source limits assumed): as the sequence (P16471 other isoform, or with tags, fused parts or gaps) above, with I76V, A110T, I125M, I158T, T207I counted along it
B1 yielded an absorbance at 450nm of 2.16.
The same measure, in the same setting: the result for B2 reads 2.25; that for B3, 2.51.
The same measure, in the same setting: the figure for B4 is 2.37; for B5 it is 2.3; for B6 it is 2.25.
Still for that read-out and setting: the figure for B7 is 2.51; for B8 it is 2.51; for B9 it is 1.52.
B11 had an absorbance at 450nm of 3.75.
Still for that read-out and setting: the figure for B12 is 3.65; for B13 it is 0.435.

The next assay addresses extracellular segment of human PRLR protein with avi-(his)6 tag (hPRLR-ECD-avi-his) (human) (UniProt P16471). The assay is described as follows: ELISA, coated antigen 1 ug/mL, antibody 10 ug/mL.
For B2, the absorbance at 450nm turned out to be 2.16.
Same read-out and setting: the result for B8 reads 2.25.
B9 yielded an absorbance at 450nm of 1.45.
Regarding B10, the absorbance at 450nm came to 0.638.
Still for that read-out and setting: the figure for B11 is 4; for B12 it is 3.91; for B13 it is 3.94.
The same measure, in the same setting: the figure for B14 is 3.12.
